Source: patent publication US20110243954A1 (published 2011)

B1: 12A2 sv1-AAA-12A2 sv1-9GS-59C2-9GS-59C2 (vWF-0056) (VHH)
chain: DVQLVESGGGLVQPGGSLRLSCAASGRTFSYNPMGWFRQAPGKGRELVAAISRTGGSTYYPESVEGRFTISRDNAKRTVYLQMNSLRAEDTAVYYCAAAGVRAEQGRVRTLPSEYTFWGQGTQVTVSSAAAEVQLVESGGGLVQPGGSLRLSCAASGRTFSYNPMGWFRQAPGKGRELVAAISRTGGSTYYPESVEGRFTISRDNAKRTVYLQMNSLRAEDTAVYYCAAAGVRAEQGRVRTLPSEYTFWGQGTQVTVSSGGGGSGGGSRDWDFDVFGGGTPVGGGGGGSGGGSRDWDFDVFGGGTPVGG
notes: bivalent anti-vWF Nanobody with a C-terminal tandem repeat of 59C2
B2: 12A2 sv1-AAA-12A2 sv1-9GS-59C2 (vWF-0055) (VHH)
chain: DVQLVESGGGLVQPGGSLRLSCAASGRTFSYNPMGWFRQAPGKGRELVAAISRTGGSTYYPESVEGRFTISRDNAKRTVYLQMNSLRAEDTAVYYCAAAGVRAEQGRVRTLPSEYTFWGQGTQVTVSSAAAEVQLVESGGGLVQPGGSLRLSCAASGRTFSYNPMGWFRQAPGKGRELVAAISRTGGSTYYPESVEGRFTISRDNAKRTVYLQMNSLRAEDTAVYYCAAAGVRAEQGRVRTLPSEYTFWGQGTQVTVSSGGGGSGGGSRDWDFDVFGGGTPVGG
notes: bivalent anti-vWF Nanobody with one C-terminal 59C2 peptide

The binders below were run against T1, human serum albumin (human, UniProt P02768 25-609) (assay: solution binding competition ELISA: phage pre-incubated with 1 µM HSA, unbound phage captured on coated HSA; signal with competitor / without).
T1 construct: HSA used in ELISA and SPR was bought (Sigma); also called HSA
Experimental: (§1) A competition ELISA was performed to determine the relative binding affinity for the selected phage clones. 96-well Nunc Maxisorp plates were coated with 2 μg/ml HSA in coating buffer at 4° C. Plates were blocked with SuperblockT20 (Pierce) for 1 h at room temperature. The microtiter plates were washed with wash buffer (PBS, 0.05% Tween 20).
Unbound phage was captured by transferring 100 μl of the well mixture to the HSA coated Maxisorp plate and incubating at room temperature for 30 minutes. The plate with captured phage was washed with PBS-0.05% Tween 20 five times. Bound phages were detected with anti-M13 and goat-anti mouse IRDye conjugate. The amount of IRDye bound was measured on Odyssey (LI-COR Biosciences). The ratio of phage binding was calculated by the following equation: fluorescence signal of well with competitor/fluorescence signal of well with no competitor (Table III).

| Binder | Ratio 1 µM/0 µM HSA [ratio] |
| --- | --- |
| AALYDDYDVFGGGTPVGG (also called 01C7; PMP26A3 (in the text)) [PMP56A3] | 0.47 |
| AALYDDYDVFGGGTPAGG [01B3] | 0.42 |
| AAFYDDYDVFGGGTPAGG (also called 01G7; PMP54H5 (in the text)) [PMP56H5] | 0.43 |

The binders below were run against T1, human serum albumin (assay: phage competition ELISA: signal of well with 2 µM HSA competitor / signal of well with no competitor).
Experimental: as §1
After respectively three and four selection rounds, monoclonal phage were screened for binding on HSA, in the manner described in Example 2. […] The ratio of phage binding was calculated by the following equation: fluorescence signal of well with 2 μM competitor/fluorescence signal of well with no competitor (Table VI).

| Binder | Ratio 2 µM/0 µM HSA [ratio] |
| --- | --- |
| AARYWDYDVFGGGTPVGG (also called EXP56E4) [PMP56E4] | 0.82 |
| AARDWDFDVFGGGTPVGG (also called EXP59C2) [59C2] | 0.91 |
| AARSWDFDVFGGGTPVGG [59H12] | 0.87 |
| AARYWDFDVFGGGTPVGG [59F2] | 0.69 |

These binders were tested against T2, von Willebrand factor (human, UniProt P04275 764-2813) (assay: inhibition ELISA of ristocetin-induced binding of vWF to platelets).
T2 construct: also called vWF; VWF
Experimental: After 3 times washing with phosphate buffered saline (PBS), wells were incubated for 1 hour at room temperature (RT) with formalin fixed human platelets (Dade Behring, Newark, Del.) which were diluted two-fold in PBS or—as a blank—with PBS. Wells were washed 3 times with PBS and blocked for 2 hours at RT with PBS containing 4% bovine serum albumin (BSA, Sigma). A dilution series of compound was prepared in human plasma and was preincubated for 30 min at RT with 1.5 mg/mL ristocetin (abp, NJ, USA) after which the mixture was transferred to the coated wells. […] For the analysis of the data, the absorbance values were corrected using the absorbance of the respective blanks.

| Binder | binding result |
| --- | --- |
| B1 | binds |
| B2 | binds |
